According to patent publication US20250320281A1:

Columns and labels:
Experiment in all cases: cell-based or functional assay
[1] = target: HIV-1 Env of isolate MGRM-C-026 (pseudovirus) (HIV-1)
[2] = target: HIV-1 Env of isolate 92BR020 (pseudovirus) (HIV-1)
[3] = target: HIV-1 Env of isolate JR-CSF (pseudovirus) (HIV-1) (UniProt P20871)
[4] = target: HIV-1 Env of isolate 94UG103 (pseudovirus) (HIV-1)
[5] = target: HIV-1 Env of isolate 94KE105 (pseudovirus) (HIV-1)
[6] = target: HIV-1 Env of isolate 92TH021 (pseudovirus) (HIV-1)
[7] = target: HIV-1 Env of isolate MGRM-A-008 (pseudovirus) (HIV-1)
[8] = target: HIV-1 Env of isolate VLGCA1 (pseudovirus) (HIV-1)
[9] = target: HIV-1 Env of isolate MGRM-A-014 (pseudovirus) (HIV-1)
[10] = target: HIV-1 Env of isolate MGRM-A-009 (pseudovirus) (HIV-1)
[11] = target: HIV-1 Env of isolate MGRM-A-005 (pseudovirus) (HIV-1)
[12] = target: HIV-1 Env of isolate 93UG077 (pseudovirus) (HIV-1)
[13] = target: HIV-1 Env of isolate MGRM-A-006 (pseudovirus) (HIV-1)
[14] = target: HIV-1 Env of isolate MGRM-A-003 (pseudovirus) (HIV-1)
[15] = target: HIV-1 Env of isolate 92UG037 (pseudovirus) (HIV-1)
[16] = target: HIV-1 Env of isolate 93WR029 (pseudovirus) (HIV-1)
[17] = target: HIV-1 Env of isolate MGRM-A-011 (pseudovirus) (HIV-1)
[18] = target: HIV-1 Env of isolate MGRM-A-007 (pseudovirus) (HIV-1)
[19] = target: HIV-1 Env of isolate 92WR026 (pseudovirus) (HIV-1)
[20] = target: HIV-1 Env of isolate 92WR024 (pseudovirus) (HIV-1)
[21] = target: HIV-1 Env of isolate MGRM-A-012 (pseudovirus) (HIV-1)
[22] = target: HIV-1 Env of isolate MGRM-A-013 (pseudovirus) (HIV-1)
[23] = target: HIV-1 Env of isolate MGRM-A-010 (pseudovirus) (HIV-1)
[24] = target: HIV-1 Env of isolate MGRM-AE-001 (pseudovirus) (HIV-1)
[25] = target: HIV-1 Env of isolate MGRM-A-002 (pseudovirus) (HIV-1)
[26] = target: HIV-1 Env of isolate 92WR009 (pseudovirus) (HIV-1)
[27] = target: HIV-1 Env of isolate MGRM-A-004 (pseudovirus) (HIV-1)
[28] = target: HIV-1 Env of isolate 92RW008 (pseudovirus) (HIV-1)
[29] = target: HIV-1 Env of isolate 92UG031 (pseudovirus) (HIV-1)
[30] = target: HIV-1 Env of isolate MGRM-AE-002 (pseudovirus) (HIV-1)
[31] = target: HIV-1 Env of isolate MGRM-AE-003 (pseudovirus) (HIV-1)
[32] = target: HIV-1 Env of isolate MGRM-A-001 (pseudovirus) (HIV-1)
[33] = target: HIV-1 Env of isolate CMU02 (pseudovirus) (HIV-1)
[34] = target: HIV-1 Env of isolate 92WR020 (pseudovirus) (HIV-1)
[35] = target: HIV-1 Env of isolate 92WR021 (pseudovirus) (HIV-1)

Substance 4873_E03 (PGT-121) (antibody) has a Primary Neutralization Index (B cell culture supernatant) [1] of 371, a Primary Neutralization Index (B cell culture supernatant) [2] of 3.6 and a Primary Neutralization Index (B cell culture supernatant) [3] of 2.2. The Primary Neutralization Index (B cell culture supernatant) [4] was 0.8.

Substance PGT-121 (4838_L06; 4873_E03) (antibody) has an IC50 (µg/mL), pseudovirus neutralization [5] of 0.029 µg/mL, an IC50 (µg/mL), pseudovirus neutralization [6] greater than 50 µg/mL and an IC50 (µg/mL), pseudovirus neutralization [7] greater than 50 µg/mL. It also gave an IC50 (µg/mL), pseudovirus neutralization [8] greater than 50 µg/mL, an IC50 (µg/mL), pseudovirus neutralization [9] of 0.003 µg/mL and an IC50 (µg/mL), pseudovirus neutralization [10] of 0.006 µg/mL. For the same substance, the IC50 (µg/mL), pseudovirus neutralization [11] was greater than 50 µg/mL, the IC50 (µg/mL), pseudovirus neutralization [12] was 0.019 µg/mL and the IC50 (µg/mL), pseudovirus neutralization [13] was 0.396 µg/mL. For the same substance, the IC50 (µg/mL), pseudovirus neutralization [14] was 0.435 µg/mL, the IC50 (µg/mL), pseudovirus neutralization [15] was 0.031 µg/mL and the IC50 (µg/mL), pseudovirus neutralization [16] was greater than 50 µg/mL. For the same substance, the IC50 (µg/mL), pseudovirus neutralization [17] was greater than 50 µg/mL, the IC50 (µg/mL), pseudovirus neutralization [18] was greater than 50 µg/mL and the IC50 (µg/mL), pseudovirus neutralization [19] was 0.014 µg/mL. For the same substance, the IC50 (µg/mL), pseudovirus neutralization [20] was greater than 50 µg/mL, the IC50 (µg/mL), pseudovirus neutralization [21] was 0.092 µg/mL and the IC50 (µg/mL), pseudovirus neutralization [22] was 0.387 µg/mL. For the same substance, the IC50 (µg/mL), pseudovirus neutralization [23] was 2.44 µg/mL, the IC50 (µg/mL), pseudovirus neutralization [24] was greater than 50 µg/mL and the IC50 (µg/mL), pseudovirus neutralization [25] was 0.013 µg/mL. The IC50 (µg/mL), pseudovirus neutralization [26] was 1.74 µg/mL, the IC50 (µg/mL), pseudovirus neutralization [27] was greater than 50 µg/mL and the IC50 (µg/mL), pseudovirus neutralization [28] was 0.003 µg/mL. For the same substance, the IC50 (µg/mL), pseudovirus neutralization [29] was greater than 50 µg/mL, the IC50 (µg/mL), pseudovirus neutralization [30] was greater than 50 µg/mL and the IC50 (µg/mL), pseudovirus neutralization [31] was greater than 50 µg/mL. The IC50 (µg/mL), pseudovirus neutralization [32] was greater than 50 µg/mL, the IC50 (µg/mL), pseudovirus neutralization [33] was greater than 50 µg/mL and the IC50 (µg/mL), pseudovirus neutralization [34] was 0.004 µg/mL. For the same substance, the IC50 (µg/mL), pseudovirus neutralization [35] was 0.009 µg/mL and the IC50 (µg/mL), pseudovirus neutralization [4] was 2.52 µg/mL.
